Experimental data taken from US20240058465A1 (SUTRO BIOPHARMA, published 2024).

Legend:
[1] = biological target: receptor tyrosine kinase orphan receptor 1 (ROR1) on Ntera-2 cells (human, UniProt Q01973 30-937); test: cell-based or functional assay
human ROR1 (hROR1) [2] = biological target: T1, human ROR1 (hROR1) (human, UniProt Q01973 30-937); test: flow cytometry, HCT116-hROR1 cells
T1 construct: On HCT116-hROR1 transfectants, Mino cells or Ntera-2 cells, as the assay of each row says; also called receptor tyrosine kinase like orphan receptor 1

[3] = biological target: T2, human ROR1 Frizzled domain (hROR1-Fz) (human, UniProt Q01973 165-305); test: SPR Biacore, IgG on anti-Fc, ROR1-Fz analyte
T2 construct: Acro Biosystems, made in HEK293
Outline: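 Test antibodies captured on an anti-Fc surface (CM5 chip), then analyte bound for 180 s with 600 s dissociation at 25° C in HBS-EP+ buffer at 50 μL/min. Human ROR1 ECD, Frizzled or Kringle domain used as analyte; regeneration with 10 mM glycine pH 2.0.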

human ROR1 (hROR1) [4] = biological target: T1, human ROR1 (hROR1); test: cell-based or functional assay

| Bmax (MFI) (human ROR1 (hROR1) [2]) | Kd (human ROR1 (hROR1) [2]) | Kd [3] | koff [3] | kon [3] | Binder | cell killing EC50, NTERA-2 cells [1] | cell killing Span, NTERA-2 cells [1] | Mino Nb-PBD, drug-conjugated 2° antibody Cell Killing EC50 (human ROR1 (hROR1) [4]) | Mino Nb-PBD, drug-conjugated 2° antibody Cell Killing Span (human ROR1 (hROR1) [4]) |
| --- | --- | --- | --- | --- | --- | --- | --- | --- | --- |
| – | – | – | – | – | Conjugate 26 (D04 x A05-F404-LP8 biparatopic) (bispecific antibody, human IgG1, kappa, pAMF at F404 (EU), linked to LP8) heavy 1: MEVQLVESGGGLVQPGGSLRLSCAASGFNISDYDIHWVRQAPGKGLEWVGGIDPADGSTDYADSVKGRFTISADTSKNTAYLQMNSLRAEDTAVYYCARDYGVYDYWGQGTLVTVSSASTKGPSVFPLAPSSKSTSGGTAALGCLVKDYFPEPVTVSWNSGALTSGVHTFPAVLQSSGLYSLSSVVTVPSSSLGTQTYICNVNHKPSNTKVDKKVEPKSCDKTHTCPPCPAPELLGGPSVFLFPPKPKDTLMISRTPEVTCVVVDVSHEDPEVKFNWYVDGVEVHNAKTKPREEQYNSTYRVVSVLTVLHQDWLNGKEYKCKVSNKALPAPIEKTISKAKGQPREPQVYTLPPSREEMTKNQVSLWCLVKGFYPSDIAVEWESNGQPENNYKTTPPVLDSDGSFLYSKLTVDKSRWQQGNVFSCSVMHEALHNHYTQKSLSLSPGK heavy 2: MEVQLVESGGGLVQPGGSLRLSCAASGFNIKEYHIHWVRQAPGKGLEWVGYISPNSGSTYYADSVKGRFTISADTSKNTAYLQMNSLRAEDTAVYYCARDHRRYVRPFDYWGQGTLVTVSSASTKGPSVFPLAPSSKSTSGGTAALGCLVKDYFPEPVTVSWNSGALTSGVHTFPAVLQSSGLYSLSSVVTVPSSSLGTQTYICNVNHKPSNTKVDKKVEPKSCDKTHTCPPCPAPELLGGPSVFLFPPKPKDTLMISRTPEVTCVVVDVSHEDPEVKFNWYVDGVEVHNAKTKPREEQYNSTYRVVSVLTVLHQDWLNGKEYKCKVSNKALPAPIEKTISKAKGQPREPQVYTLPPSREEMTKNQVSLSCAVKGFYPSDIAVEWESNGQPENNYKTTPPVLDSDGSFLVSKLTVDKSRWQQGNVFSCSVMHEALHNHYTQKSLSLSPGK light: not shown | 28 pM | 84% | – | – |
| – | – | – | – | – | Conjugate 28 (A05 x B04-F404-LP8 biparatopic) (bispecific antibody, human IgG1, kappa, pAMF at F404 (EU), linked to LP8) heavy 1: MEVQLVESGGGLVQPGGSLRLSCAASGFNIKEYHIHWVRQAPGKGLEWVGYISPNSGSTYYADSVKGRFTISADTSKNTAYLQMNSLRAEDTAVYYCARDHRRYVRPFDYWGQGTLVTVSSASTKGPSVFPLAPSSKSTSGGTAALGCLVKDYFPEPVTVSWNSGALTSGVHTFPAVLQSSGLYSLSSVVTVPSSSLGTQTYICNVNHKPSNTKVDKKVEPKSCDKTHTCPPCPAPELLGGPSVFLFPPKPKDTLMISRTPEVTCVVVDVSHEDPEVKFNWYVDGVEVHNAKTKPREEQYNSTYRVVSVLTVLHQDWLNGKEYKCKVSNKALPAPIEKTISKAKGQPREPQVYTLPPSREEMTKNQVSLWCLVKGFYPSDIAVEWESNGQPENNYKTTPPVLDSDGSFLYSKLTVDKSRWQQGNVFSCSVMHEALHNHYTQKSLSLSPGK heavy 2: MEVQLVESGGGLVQPGGSLRLSCAASGFNIAGYAIHWVRQAPGKGLEWVGLITPTPGTSNYADSVKGRFTISVDTSKNTAYLQMNSLRAEDTAAYYCARDYRGVYLYSFYYDYWGQGTLVTVSSASTKGPSVFPLAPSSKSTSGGTAALGCLVKDYFPEPVTVSWNSGALTSGVHTFPAVLQSSGLYSLSSVVTVPSSSLGTQTYICNVNHKPSNTKVDKKVEPKSCDKTHTCPPCPAPELLGGPSVFLFPPKPKDTLMISRTPEVTCVVVDVSHEDPEVKFNWYVDGVEVHNAKTKPREEQYNSTYRVVSVLTVLHQDWLNGKEYKCKVSNKALPAPIEKTISKAKGQPREPQVYTLPPSREEMTKNQVSLSCAVKGFYPSDIAVEWESNGQPENNYKTTPPVLDSDGSFLVSKLTVDKSRWQQGNVFSCSVMHEALHNHYTQKSLSLSPGK light: not shown | 28 pM | 88% | – | – |
| – | – | – | – | – | Conjugate 29 (A05 x C06-F404-LP8 biparatopic) (bispecific antibody, human IgG1, kappa, pAMF at F404 (EU), linked to LP8) heavy 1: MEVQLVESGGGLVQPGGSLRLSCAASGFNIKEYHIHWVRQAPGKGLEWVGYISPNSGSTYYADSVKGRFTISADTSKNTAYLQMNSLRAEDTAVYYCARDHRRYVRPFDYWGQGTLVTVSSASTKGPSVFPLAPSSKSTSGGTAALGCLVKDYFPEPVTVSWNSGALTSGVHTFPAVLQSSGLYSLSSVVTVPSSSLGTQTYICNVNHKPSNTKVDKKVEPKSCDKTHTCPPCPAPELLGGPSVFLFPPKPKDTLMISRTPEVTCVVVDVSHEDPEVKFNWYVDGVEVHNAKTKPREEQYNSTYRVVSVLTVLHQDWLNGKEYKCKVSNKALPAPIEKTISKAKGQPREPQVYTLPPSREEMTKNQVSLWCLVKGFYPSDIAVEWESNGQPENNYKTTPPVLDSDGSFLYSKLTVDKSRWQQGNVFSCSVMHEALHNHYTQKSLSLSPGK heavy 2: MEVQLVESGGGLVQPGGSLRLSCAASGFNITSYGIHWVRQAPGKGLEWVGWIAPNSGNTYYADSVKGRFTISADTSKNTAYLQMNSLRAEDTAVYYCARDIVSTYSYYYLMDYWGQGTLVTVSSASTKGPSVFPLAPSSKSTSGGTAALGCLVKDYFPEPVTVSWNSGALTSGVHTFPAVLQSSGLYSLSSVVTVPSSSLGTQTYICNVNHKPSNTKVDKKVEPKSCDKTHTCPPCPAPELLGGPSVFLFPPKPKDTLMISRTPEVTCVVVDVSHEDPEVKFNWYVDGVEVHNAKTKPREEQYNSTYRVVSVLTVLHQDWLNGKEYKCKVSNKALPAPIEKTISKAKGQPREPQVYTLPPSREEMTKNQVSLSCAVKGFYPSDIAVEWESNGQPENNYKTTPPVLDSDGSFLVSKLTVDKSRWQQGNVFSCSVMHEALHNHYTQKSLSLSPGK light: not shown | 27 pM | 88% | – | – |
| – | – | – | – | – | Conjugate 27 (D04 x B04-F404-LP8 biparatopic) (bispecific antibody, human IgG1, kappa, pAMF at F404 (EU), linked to LP8) heavy 1: MEVQLVESGGGLVQPGGSLRLSCAASGFNISDYDIHWVRQAPGKGLEWVGGIDPADGSTDYADSVKGRFTISADTSKNTAYLQMNSLRAEDTAVYYCARDYGVYDYWGQGTLVTVSSASTKGPSVFPLAPSSKSTSGGTAALGCLVKDYFPEPVTVSWNSGALTSGVHTFPAVLQSSGLYSLSSVVTVPSSSLGTQTYICNVNHKPSNTKVDKKVEPKSCDKTHTCPPCPAPELLGGPSVFLFPPKPKDTLMISRTPEVTCVVVDVSHEDPEVKFNWYVDGVEVHNAKTKPREEQYNSTYRVVSVLTVLHQDWLNGKEYKCKVSNKALPAPIEKTISKAKGQPREPQVYTLPPSREEMTKNQVSLWCLVKGFYPSDIAVEWESNGQPENNYKTTPPVLDSDGSFLYSKLTVDKSRWQQGNVFSCSVMHEALHNHYTQKSLSLSPGK heavy 2: MEVQLVESGGGLVQPGGSLRLSCAASGFNIAGYAIHWVRQAPGKGLEWVGLITPTPGTSNYADSVKGRFTISVDTSKNTAYLQMNSLRAEDTAAYYCARDYRGVYLYSFYYDYWGQGTLVTVSSASTKGPSVFPLAPSSKSTSGGTAALGCLVKDYFPEPVTVSWNSGALTSGVHTFPAVLQSSGLYSLSSVVTVPSSSLGTQTYICNVNHKPSNTKVDKKVEPKSCDKTHTCPPCPAPELLGGPSVFLFPPKPKDTLMISRTPEVTCVVVDVSHEDPEVKFNWYVDGVEVHNAKTKPREEQYNSTYRVVSVLTVLHQDWLNGKEYKCKVSNKALPAPIEKTISKAKGQPREPQVYTLPPSREEMTKNQVSLSCAVKGFYPSDIAVEWESNGQPENNYKTTPPVLDSDGSFLVSKLTVDKSRWQQGNVFSCSVMHEALHNHYTQKSLSLSPGK light: not shown | 24 pM | 89% | – | – |
| 15500 MFI | 1220 pM | 6940 pM | 0.00101 s⁻¹ | 146000 M⁻¹ s⁻¹ | SRP2193-D02 (antibody, IgG1, V domains shown, His/FLAG-tagged IgG1, cell-free) VH: EVQLVESGGGLVQPGGSLRLSCAASGFNIKDYYIHWVRQAPGKGLEWVGAIDPESGSTVYADSVKGRFTISADTSKNTAYLQMNSLRAEDTAVYYCARSRWFRVLWSYVFDYWGQGTLVTVSS VL: not shown | – | – | 3.8 pM | 61% |
| 15800 MFI | 1640 pM | 2890 pM | 0.000331 s⁻¹ | 114000 M⁻¹ s⁻¹ | SRP2193-D05 (antibody, IgG1, V domains shown, His/FLAG-tagged IgG1, cell-free; also called Antibody 78) VH: EVQLVESGGGLVQPGGSLRLSCAASGFNINDHYIHWVRQAPGKGLEWVGAIDPNSGSTVYADSVKGRFTISADTSKNTAYLQMNSLRAEDTAVYYCARSRWFRVLWSYVFDYWGQGTLVTVSS VL: not shown | – | – | 4.2 pM | 59% |
